Measured values as given in article PMC5987771.

Target: T1, Pot1pC (C-terminal domain of the Pot1 DNA-binding domain) (Schizosaccharomyces pombe, UniProt O13988 198-339, V199D)
T1 sequence: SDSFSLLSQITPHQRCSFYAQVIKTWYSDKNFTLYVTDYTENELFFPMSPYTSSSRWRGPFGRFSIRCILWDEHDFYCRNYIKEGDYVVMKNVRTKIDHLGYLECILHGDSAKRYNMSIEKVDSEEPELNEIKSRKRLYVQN
Test: X-ray crystallography

GGTTACGGT (mixed, ribose at 1 (rG1), rest DNA) [1R]: binds.
